Experimental data: PMC5899921 (Cytoskeleton (Hoboken, N.J.), 2017)

B1: Myo2p, heavy chain of fission yeast myosin-II Myo2, in purified "Phosphorylated Myo2" (natural protein, S. pombe, UniProt Q9USI6 1-1526, looked up)
chain: MTEVISNKITAKDGATSLKDIDDKRWVWISDPETAFTKAWIKEDLPDKKYVVRYNNSRDEKIVGEDEIDPVNPAKFDRVNDMAELTYLNEPAVTYNLEQRYLSDQIYTYSGLFLVAVNPYCGLPIYTKDIIQLYKDKTQERKLPHVFAIADLAYNNLLENKENQSILVTGESGAGKTENTKRIIQYLAAIASSTTVGSSQVEEQIIKTNPVLESFGNARTVRNNNSSRFGKFIKVEFSLSGEISNAAIEWYLLEKSRVVHQNEFERNYHVFYQLLSGADTALKNKLLLTDNCNDYRYLKDSVHIIDGVDDKEEFKTLLAAFKTLGFDDKENFDLFNILSIILHMGNIDVGADRSGIARLLNPDEIDKLCHLLGVSPELFSQNLVRPRIKAGHEWVISARSQTQVISSIEALAKAIYERNFGWLVKRLNTSLNHSNAQSYFIGILDIAGFEIFEKNSFEQLCINYTNEKLQQFFNHHMFVLEQEEYMKEEIVWDFIDFGHDLQPTIDLIEKANPIGILSCLDEECVMPKATDATFTSKLDALWRNKSLKYKPFKFADQGFILTHYAADVPYSTEGWLEKNTDPLNENVAKLLAQSTNKHVATLFSDYQETETKTVRGRTKKGLFRTVAQRHKEQLNQLMNQFNSTQPHFIRCIVPNEEKKMHTFNRPLVLGQLRCNGVLEGIRITRAGFPNRLPFNDFRVRYEIMAHLPTGTYVESRRASVMILEELKIDEASYRIGVSKIFFKAGVLAELEERRVATLQRLMTMLQTRIRGFLQRKIFQKRLKDIQAIKLLQANLQVYNEFRTFPWAKLFFNLRPLLSSTQNDKQLKKRDAEIIELKYELKKQQNSKSEVERDLVETNNSLTAVENLLTTERAIALDKEEILRRTQERLANIEDSFSETKQQNENLQRESASLKQINNELESELLEKTSKVETLLSEQNELKEKLSLEEKDLLDTKGELESLRENNATVLSEKAEFNEQCKSLQETIVTKDAELDKLTKYISDYKTEIQEMRLTNQKMNEKSIQQEGSLSESLKRVKKLERENSTLISDVSILKQQKEELSVLKGVQELTINNLEEKVNYLEADVKQLPKLKKELESLNDKDQLYQLQATKNKELEAKVKECLNNIKSLTKELENKEEKCQNLSDASLKYIELQEIHENLLLKVSDLENYKKKYEGLQLDLEGLKDVDTNFQELSKKHRDLTFNHESLLRQSASYKEKLSLASSENKDLSNKVSSLTKQVNELSPKASKVPELERKITNLMHEYSQLGKTFEDEKRKALIASRDNEELRSLKSELESKRKLEVEYQKVLEEVKTTRSLRSEVTLLRNKVADHESIRSKLSEVEMKLVDTRKELNSALDSCKKREAEIHRLKEHRPSGKENNIPAVKTTEPVLKNIPQRKTIFDLQQRNANQALYENLKRDYDRLNLEKHNLEKQVNELKGAEVSPQPTGQSLQHVNLAHAIELKALKDQINSEKAKMFSVQVQYEKREQELQKRIASLEKVNKDSLIDVRALRDRIASLEDELRAA
modifications: phosphoserine at 1444 (largely phosphorylated, LC/MS/MS)
B2: mEGFP-Myo2 (Myo2 heavy chain with an N-terminal mEGFP tag) (natural protein, S. pombe, UniProt Q9USI6 1-1526, looked up)
chain: B1 chain

Legend:
electron microscopy = target: the molecule itself; assay: electron microscopy
[1] = target: the molecule itself; assay: fluorescence correlation spectroscopy with photon counting histogram analysis

| Protein | stoichiometry N (electron microscopy) | stoichiometry N [1] |
| --- | --- | --- |
| B1 | 2 |  |
| B2 |  | 2 |
